Data on 17 molecules can be found in patent publication US20170320960A1 (AbbVie / Abbott, published 2017).

In test [1] the target is T1, hMFI2 Tf-like Domain 2 (TLD2), amino acids 366-709, displayed on yeast (human, UniProt P08582 366-709).
T1 construct: also called TFLD2; transferrin-like domain 2
T1 sequence: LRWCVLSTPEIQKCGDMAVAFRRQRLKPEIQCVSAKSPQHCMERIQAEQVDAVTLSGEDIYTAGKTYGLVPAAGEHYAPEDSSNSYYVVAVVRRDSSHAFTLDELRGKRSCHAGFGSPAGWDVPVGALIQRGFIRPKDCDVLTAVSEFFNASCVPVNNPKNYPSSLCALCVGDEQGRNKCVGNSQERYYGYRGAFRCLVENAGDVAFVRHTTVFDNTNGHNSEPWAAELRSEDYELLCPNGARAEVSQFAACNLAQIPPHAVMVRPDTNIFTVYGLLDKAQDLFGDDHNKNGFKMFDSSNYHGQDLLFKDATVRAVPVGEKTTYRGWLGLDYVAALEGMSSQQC
Briefly: flow cytometry on yeast displaying hMFI2 domains. A general note: In flow cytometry, cells or beads pass a laser one at a time.

In test [2] the target is T1, hMFI2 Tf-like Domain 2 (TLD2), amino …. Briefly: flow cytometry on yeast displaying hMFI2 domains. The source holds these as a separate data set.

Residue numbers refer to the chain shown, from its start. Read-outs that look alike come from different tables or passages of the source.

B1: SC57.17 (antibody, V domains shown)
VH: EVQLQQSGAELVKPGASVKLSCTASGFNIKDTYMHWVKQRPEQGLEWIGRIDPANVNTSDDPKFQGKATIAADTSSNTVYLQLSSLTSEDTAVYYCARDYRYDGYYYAMDYWGQGTSVTVSS
VL: DIQMTQTTSSLSASLGDRVTISCSASQDINNYLNWYQQKPDGTVKLLIHYTSSLHSGVPSRFSGSGSGTDYSLTISNLEPEDIATYYCQQYSKVPWTFGGGTKLEIK
B1: in test [1], the binding result is given as “binds”.

B2: SC57.31 (antibody, V domains shown)
VH: QVHLKESGPGLVAPSQSLSITCTVSGFSLTTYGVHWVRQPPGKGLEWLGVIWAGGSTKYNSAFMSRLSISKDNSKTQVLLKMNSLQTDDTAMYYCARVASHGSSSWFAYWGQGTLVTVSA
VL: DIVLTQSPATLSVTPGDSVSLSCRASQSVGNSLHWYQQKSHESPRLLIKYASQSISGIPSRFSGSGSGTDFTLSINSVETEDFGMYFCQQSDSWPLTFGTGTKLELK
B2: in test [2], the binding result is “binds”.

B3: SC57.52 (antibody, V domains shown)
VH: QVQLKQSGPGLVQPSQSLSITCTVSGFSLSSYGVHWVRQSPGKGLEWLGVIWSGGNTDYNAAFISRLSISKDNSKSQVFFKMNSLQADDTAIYYCARRNNSAWFAYWGQGTLVTVSA
VL: B2 VL with S28G, V29I, G30S, S32N, T72A, Y86F, D92N, T100A
As for B3, the binding result in test [2] is “binds”.

B4: SC57.55 (antibody, V domains shown)
VH: B3 VH
VL: B2 VL with S28G, V29I, G30S, S32N, T72A, Y86F, D92N, T100A
Consider B4, for which the binding result in test [2] was “binds”.

B5: hSC57.43 (antibody, human IgG1, kappa, V domains shown)
VH: QVQLVESGGGVVQPGRSLRLSCAASGFTFGSYTMSWVRQAPGKGLEWVAYISNGGYVTYYPDTVKGRFTISRDNSKNTLYLQMNSLRAEDTAVYYCARGYDWYFDVWGQGTTVTVSS
VL: DIVMTQSPDSLAVSLGERATINCRSSQSLVHSNGNTYLHWYQQKPGQPPKLLIYKVSNRFSGVPDRFSGSGSGTDFTLTISSLQAEDVAVYYCSQSTHVPLYTFGGGTKVEIKR
With B5, the binding result in test [2] is given as “binds”.

B6: hSC57.5 (antibody, human IgG1, kappa, V domains shown)
VH: EVQLVQSGAEVKKPGESLKISCKGSGYSFTDYYLHWVRQMPGKGLEWMGRINPYNGATSYNQIFKDQVTISADKSISTAYLQWSSLKASDTAMYYCARGGDYDFPWYWGQGTTVTVSS
VL: DIQMTQSPSSLSASVGDRVTITCKASQDVYAAVAWYQQKPGKAPKLLIYWASTRHAGVPSRFSGSGSGTDFTLTISSLQPEDFATYYCQQHYRTPWTFGQGTKVEIKR
notes: also called humanized SC57.5
For B6, the binding result in test [2] is on record as “binds”.

B7: SC57.10 (antibody, V domains shown)
VH: QVQLQQSGAELMKPGASVKISCKATGYTFSNYRIEWIKQRPGHGLEWIGEILPRGGNTNYNEKFKGKATFTADTSSNTAYMQLTSLTSEDSAVYYCARDDGYYGRFAYWGQGTLVTVSA
VL: DIQMTQTTSSLSASLGDRVTISCRASQDISNYLNWYQQKPDGTVKLLIFYTSRLHSGVPSRFSGSGSGTDYSLTISNLEQEDFATYFCQQGNTLPPTFGGGTKLEIK
B7: the binding result in test [1] was “binds”.

B8: SC57.32 (antibody, V domains shown)
VH: B7 VH
VL: B7 VL
With B8, the binding result in test [2] is given as “binds”.

B9: SC57.11 (antibody, V domains shown)
VH: B7 VH with I37M, G55T, K63N, M81I, T84S
VL: B7 VL with N31S, F49Y, S76N, F83I
For B9, the binding result in test [1] is reported as “binds”.

B10: hSC57.32 (antibody, human IgG1, kappa, V domains shown)
VH: QVQLVQSGAEVKKPGASVKVSCKASGYTFTNYRIEWVRQAPGQGLEWMGEILPRGGNTNYNEKFKGRVTFTADTSTSTAYMELRSLRSDDTAVYYCARDDGYYGRFAYWGQGTLVTVSS
VL: DIQMTQSPSSLSASVGDRVTITCRASQDISNYLNWYQQKPGKAPKLLIYYTSRLHSGVPSRFSGSGSGTDYTLTISSLQPEDFATYYCQQGNTLPPTFGGGTKVEIKR
With B10, in test [2], the binding result is recorded as “binds”.

B11: SC57.5 (antibody, V domains shown)
VH: EVQLQQSGPELVKPGASVKISCKASGYSFTDYYLHWVKQSHVKSLEWIGRINPYNGATSYNQIFKDKASLTVDKSSSTAYMDLHSLTSEDSAVYYCARGGDYDFPWYWGQGTTLTVSP
VL: DIVMTQSHKFMSTSVGDRVSITCKASQDVYAAVAWYHQKPGQSPKLLIYWASTRHAGVPDRFTGSGSGTDYTLTISSVQAEDLALYYCQQHYRTPWTFGGGTKLEIK
Consider B11, for which the binding result in test [1] was “binds”.

B12: SC57.9 (antibody, V domains shown)
VH: QVQLQQSGPELMKPGASVKISCKATGYTFSSYWIEWVKQRPGHGLEWIGEILPGSGSTEYNEKFKGKATFTADTSSNTAYMQLSSLTSEDSDVYYCARKRYGTMDYWGQGTSVTVSS
VL: QIVLTQSPAIMSASPGEKVTITCSASSSVSYMHWFQQKPGTSPKLWIYTTSNLASGVPARFSGSGSGTSYSLTISRMEAEDAATYYCQQRSSFPPTFGSGTKLEIK
B12: the binding result in test [1] was “binds”.

B13: SC57.4 (antibody, V domains shown)
VH: EIQLQQSGPEMVKPGASVKVTCKASGYSFTDFNMHWMKQSHGKSLEWIGYIDPYKGGISYNQKFKGRATLTVDKSSSTAFMHLNSLTSDDSAVYYCARDYYGSRFPYYFDYWGQGTTLTVSS
VL: DVVMTQTPLSLPVSLGDQASISCRSSQSLVHSNGNTYLHWYLQKPGQSPKLLIYRVSNRFSGVPDRFSGSGSGTDFTLKISRVEAEDLGVYLCSQSTHVPLTFGAGTKLELK
As to B13, the binding result in test [1] is listed as “binds”.

B14: SC57.18 (antibody, V domains shown)
VH: B13 VH
VL: B13 VL
On to B14, for which, in test [1], the binding result is listed as “binds”.

B15: SC57.28 (antibody, V domains shown)
VH: B13 VH
VL: B13 VL
In the case of B15, in test [1], the binding result is recorded as “binds”.

B16: SC57.37 (antibody, V domains shown)
VH: B13 VH
VL: B13 VL
Consider B16, for which the binding result in test [2] is “binds”.

B17: SC57.25 (antibody, V domains shown)
VH: B13 VH
VL: B13 VL
Turning to B17, the binding result in test [1] was “binds”.
